Source: publication PMC8669613 (Cell reports, 2021)

How the values were obtained:
[1] = molecular target: T1, GST-SdhA-CBM2 (1029-1260aa) (Legionella pneumophila, UniProt Q6RCQ3 1029-1260); experiment: ELISA
[2] = molecular target: T1, GST-SdhA-CBM2 (1029-1260aa); experiment: pull-down

Row | Binder | binding result [1] | fold pull-down above the GST control [2] [fold]
1 | His-tagged ASH/RhoGAP domain of OCRL (536aa-901aa) (domain or fragment) not shown | binds | –
2 | GFP-tagged, full-length OCRL (natural protein) not shown | – | ~47
3 | His-tagged ASH domain of OCRL (536aa-678aa) (domain or fragment) not shown | binds | –
